Tests used:
Experiment in all cases: EnzChek phosphate release assay (PNP-coupled, A360)
[1] = substrate: Nc1ncnc2c1ncn2[C@@H]1O[C@H](COP(=O)(O)OP(=O)(O)OP(=O)(O)O)[C@@H](O)[C@H]1O; format: biochemical, Saccharomyces cerevisiae; conditions: 37 °C, pH 7.5, 5 mM MgCl2, 2.5 μM enzyme, 0-2 mM ATP
[2] = substrate: Nc1ncnc2c1ncn2[C@@H]1O[C@H](COP(=O)(O)OP(=O)(O)OP(=O)(O)O)[C@@H](O)[C@H]1O; format: biochemical, Arabidopsis thaliana; conditions: 37 °C, pH 7.5, 5 mM MgCl2, 15 μM enzyme, 0-2 mM ATP
[3] = substrate: Nc1ncnc2c1ncn2[C@@H]1O[C@H](COP(=O)(O)OP(=O)(O)OP(=O)(O)O)[C@@H](O)[C@H]1O; format: biochemical, Nostoc sp. PCC 7120 = FACHB-418; conditions: 37 °C, pH 7.5, 5 mM MgCl2, 15 μM enzyme, 0-2 mM ATP

B1: ScGet3 (yeast Get3) (Saccharomyces cerevisiae S288C) (protein)
chain: MDLTVEPNLHSLITSTTHKWIFVGGKGGVGKTTSSCSIAIQMALSQPNKQFLLISTDPAHNLSDAFGEKFGKDARKVTGMNNLSCMEIDPSAALKDMNDMAVSRANNNGSDGQGDDLGSLLQGGALADLTGSIPGIDEALSFMEVMKHIKRQEQGEGETFDTVIFDTAPTGHTLRFLQLPNTLSKLLEKFGEITNKLGPMLNSFMGAGNVDISGKLNELKANVETIRQQFTDPDLTTFVCVCISEFLSLYETERLIQELISYDMDVNSIIVNQLLFAENDQEHNCKRCQARWKMQKKYLDQIDELYEDFHVVKMPLCAGEIRGLNNLTKFSQFLNKEYNPITDGKVIYELEDKE
notes: N-terminal His6-TEV tag (pET33b), expressed in E. coli
Km [1]: 48 ± 2 µM
kcat [1]: 2.7 ± 0.02 min⁻¹

B2: AtGet3d (Arabidopsis thaliana) (protein)
chain: TKFVTFLGKGGSGKTTAAVFAAQHYALAGLSTCLVIHNQDPSAEFLLGSKIGTSPTLINDNLSVIRLETTKMLLEPLKQLKQADARLNMTQGVLEGVVGEELGVLPGMDSIFSMLELERLVGFFRQATRKNHKGKPFDVIIYDGISTEETLRMIGLSSKTRLYAKYLRSLAEKTDLGRLTSPSIMRFVDESMNINSNKSPFDGMTSPAMWDTLERFLETGASAWRDPERFRSFLVMDPNNPMSVKAALRYWGCTVQAGSHVSGAFAISSSHLTSQIPKADFVPLPFASASVPFTITGLDWDKILLDQANSSIRELLSETVSHGTSLTQTVMFDTAKKLVTLFMPGFEKSEIKLYQYRGGSELLIEAGDQRRVIHLPSQIQGKVGGAKFVDRSLIVTMR
notes: delta1-57 (chloroplast transit peptide removed), expressed in E. coli; ATPase assay: N-terminal His6-3C tag; crystal: pET22b(+) NdeI-XhoI construct; homodimer
Km [2]: 351 ± 4 µM
kcat [2]: 1.10 ± 0.01 min⁻¹

B3: NosGet3d (Nostoc sp. PCC 7120 = FACHB-418) (protein)
chain: MALILTFLGKSGVARTKIAIAAAKLLASQGKRVLLAGLAEPVLPLLLEQTLTPDPQQIAPNLEVVQFQSSVLLERNWEEVKKLEAQYLRTPIIKEVYGQELVVLPGMDSALALNAIREYDASGKYDAIVYDGTGDAFTLRMLGLPESLSWYVRRFRQLFVNSDLGKTIAESPLIQPLISSFFNVNWTADNFAQPTNQVNNFLDKGKEALADPKRVAAFLVTTADPLEVVSVRYLWGSAQQIGLTIGGVIQVSSQTEGDLSAEFTPLSVTVVPDVTKGDWQPLIDALPNFVEQAEQAPKPITIDTHNRQVRLFLPGFDKKQVKLTQYGPEVTVEAGDQRRNIFLPPALSGRPITGAKFQNNYLIISF
notes: N-terminal His6-TEV tag (pET33b), expressed in E. coli; homodimer
Km [3]: 353 ± 10 µM
kcat [3]: 0.28 ± 0.01 min⁻¹

Reference: paper PMC10248533, “Structures of Get3d reveal a distinct architecture associated with the emergence of photosynthesis” (The Journal of Biological Chemistry, 2023)
